Target: GPIIb/IIIa receptor on platelets (human) (UniProt P08514)
Experiment: cell-based or functional assay

- Platelet aggregation, 30 nM, SFLLRN 10 µM activated platelets: 60.7 % of control
Substance: Abciximab (ReoPro®) (Fab)
